± gives the standard error.
Assay: background-corrected fluorescence of 3'-dye-labeled ssDNA relative to brightest sequence (3'-GCGCG) (fraction); higher = brighter dye fluorescence (less quenching)
Protocol: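 Single-stranded DNA is synthesized in situ on glass microarrays by 5'->3' photolithographic synthesis, with a Cy3 or Cy5 phosphoramidite coupled at the 3' end next to all 1024 permuted pentamers P1-P5. The construct is 5'-T5-(ACGT minus P5..P1 trinucleotides)-T15-P5P4P3P2P1-dye-3'; the dye is a 3' terminal modification, not part of the sequence. Arrays were scanned at 532 nm (Cy3) or 635 nm (Cy5), background from unlabeled oligos was subtracted, and values are averaged over 10 replicate features per array and at least 3 independent syntheses.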

Row | Sequence | background-corrected fluorescence (dye: Cy3 (3' terminal)) | background-corrected fluorescence (dye: Cy5 (3' terminal))
1 | TTTTTGCATGCGCATCATGATTTTTTTTTTTTTTTTATGC [CGTAT] | 0.5 ± 0.026 | 0.377 ± 0.024
2 | TTTTTGCATGCGCATCATGCTTTTTTTTTTTTTTTTATGA [AGTAT] | 0.625 ± 0.025 | 0.579 ± 0.047
3 | TTTTTGCATGCGCATGAGCATTTTTTTTTTTTTTTTATCT [TCTAT] | 0.457 ± 0.037 | 0.33 ± 0.017
4 | TTTTTGCATGCGCATGATCATTTTTTTTTTTTTTTTATCG [GCTAT] | 0.515 ± 0.016 | 0.402 ± 0.031
5 | TTTTTGCATGCGCATGATGATTTTTTTTTTTTTTTTATCC [CCTAT] | 0.384 ± 0.024 | 0.285 ± 0.019
6 | TTTTTGCATGCGCATGATGCTTTTTTTTTTTTTTTTATCA [ACTAT] | 0.478 ± 0.033 | 0.407 ± 0.053
7 | TTTTTGCATGCGCATGCGCATTTTTTTTTTTTTTTTATAT | 0.5701 ± 0.0051 | 0.405 ± 0.037
8 | TTTTTGCATGCGCATGCTCATTTTTTTTTTTTTTTTATAG [GATAT] | 0.548 ± 0.02 | 0.418 ± 0.032
9 | TTTTTGCATGCGCATGCTGATTTTTTTTTTTTTTTTATAC [CATAT] | 0.449 ± 0.022 | 0.333 ± 0.035
10 | TTTTTGCATGCGCATGCTGCTTTTTTTTTTTTTTTTATAA [AATAT] | 0.55 ± 0.038 | 0.441 ± 0.069
11 | TTTTTGCATGCTCAGCAGCATTTTTTTTTTTTTTTTAGTT [TTGAT] | 0.592 ± 0.023 | 0.411 ± 0.032
12 | TTTTTGCATGCTCAGCATCATTTTTTTTTTTTTTTTAGTG [GTGAT] | 0.541 ± 0.027 | 0.455 ± 0.053
13 | TTTTTGCATGCTCAGCATGATTTTTTTTTTTTTTTTAGTC [CTGAT] | 0.492 ± 0.026 | 0.363 ± 0.023
14 | TTTTTGCATGCTCAGCATGCTTTTTTTTTTTTTTTTAGTA [ATGAT] | 0.566 ± 0.018 | 0.491 ± 0.042
15 | TTTTTGCATGCTCATCAGCATTTTTTTTTTTTTTTTAGGT [TGGAT] | 0.634 ± 0.019 | 0.543 ± 0.033
16 | TTTTTGCATGCTCATCATCATTTTTTTTTTTTTTTTAGGG [GGGAT] | 0.653 ± 0.032 | 0.55 ± 0.037
17 | TTTTTGCATGCTCATCATGATTTTTTTTTTTTTTTTAGGC [CGGAT] | 0.617 ± 0.027 | 0.464 ± 0.026
18 | TTTTTGCATGCTCATCATGCTTTTTTTTTTTTTTTTAGGA [AGGAT] | 0.747 ± 0.018 | 0.617 ± 0.032
19 | TTTTTGCATGCTCATGAGCATTTTTTTTTTTTTTTTAGCT [TCGAT] | 0.57 ± 0.025 | 0.42 ± 0.035
20 | TTTTTGCATGCTCATGATCATTTTTTTTTTTTTTTTAGCG [GCGAT] | 0.658 ± 0.008 | 0.494 ± 0.055
21 | TTTTTGCATGCTCATGATGATTTTTTTTTTTTTTTTAGCC [CCGAT] | 0.425 ± 0.017 | 0.311 ± 0.015
22 | TTTTTGCATGCTCATGATGCTTTTTTTTTTTTTTTTAGCA [ACGAT] | 0.52 ± 0.038 | 0.447 ± 0.024

Row | Sequence | background-corrected fluorescence (dye: Cy3 (3' terminal)) | background-corrected fluorescence (dye: Cy5 (3' terminal))
23 | TTTTTGCATGCTCATGCGCATTTTTTTTTTTTTTTTAGAT | 0.569 ± 0.031 | 0.463 ± 0.02
24 | TTTTTGCATGCTCATGCTCATTTTTTTTTTTTTTTTAGAG [GAGAT] | 0.591 ± 0.014 | 0.477 ± 0.059
25 | TTTTTGCATGCTCATGCTGATTTTTTTTTTTTTTTTAGAC [CAGAT] | 0.463 ± 0.023 | 0.369 ± 0.015
26 | TTTTTGCATGCTCATGCTGCTTTTTTTTTTTTTTTTAGAA [AAGAT] | 0.639 ± 0.018 | 0.533 ± 0.052
27 | TTTTTGCATGCTGAGCAGCATTTTTTTTTTTTTTTTACTT [TTCAT] | 0.504 ± 0.046 | 0.358 ± 0.039
28 | TTTTTGCATGCTGAGCATCATTTTTTTTTTTTTTTTACTG [GTCAT] | 0.499 ± 0.024 | 0.373 ± 0.027
29 | TTTTTGCATGCTGAGCATGATTTTTTTTTTTTTTTTACTC [CTCAT] | 0.385 ± 0.03 | 0.273 ± 0.018
30 | TTTTTGCATGCTGAGCATGCTTTTTTTTTTTTTTTTACTA [ATCAT] | 0.502 ± 0.027 | 0.388 ± 0.028
31 | TTTTTGCATGCTGATCAGCATTTTTTTTTTTTTTTTACGT | 0.584 ± 0.018 | 0.482 ± 0.038
32 | TTTTTGCATGCTGATCATCATTTTTTTTTTTTTTTTACGG [GGCAT] | 0.697 ± 0.037 | 0.514 ± 0.04
33 | TTTTTGCATGCTGATCATGATTTTTTTTTTTTTTTTACGC [CGCAT] | 0.523 ± 0.0065 | 0.439 ± 0.032
34 | TTTTTGCATGCTGATCATGCTTTTTTTTTTTTTTTTACGA [AGCAT] | 0.627 ± 0.026 | 0.491 ± 0.031
35 | TTTTTGCATGCTGATGAGCATTTTTTTTTTTTTTTTACCT [TCCAT] | 0.461 ± 0.017 | 0.345 ± 0.023
36 | TTTTTGCATGCTGATGATCATTTTTTTTTTTTTTTTACCG [GCCAT] | 0.55 ± 0.026 | 0.439 ± 0.027
37 | TTTTTGCATGCTGATGATGATTTTTTTTTTTTTTTTACCC [CCCAT] | 0.408 ± 0.012 | 0.276 ± 0.019
38 | TTTTTGCATGCTGATGATGCTTTTTTTTTTTTTTTTACCA [ACCAT] | 0.43 ± 0.017 | 0.364 ± 0.02
39 | TTTTTGCATGCTGATGCGCATTTTTTTTTTTTTTTTACAT | 0.489 ± 0.027 | 0.382 ± 0.025
40 | TTTTTGCATGCTGATGCTCATTTTTTTTTTTTTTTTACAG [GACAT] | 0.499 ± 0.036 | 0.413 ± 0.03
41 | TTTTTGCATGCTGATGCTGATTTTTTTTTTTTTTTTACAC [CACAT] | 0.425 ± 0.017 | 0.312 ± 0.014
42 | TTTTTGCATGCTGATGCTGCTTTTTTTTTTTTTTTTACAA [AACAT] | 0.538 ± 0.025 | 0.433 ± 0.059
43 | TTTTTGCATGCTGCGCAGCATTTTTTTTTTTTTTTTAATT | 0.549 ± 0.014 | 0.377 ± 0.027
44 | TTTTTGCATGCTGCGCATCATTTTTTTTTTTTTTTTAATG [GTAAT] | 0.513 ± 0.02 | 0.363 ± 0.023

Row | Sequence | background-corrected fluorescence (dye: Cy3 (3' terminal)) | background-corrected fluorescence (dye: Cy5 (3' terminal))
45 | TTTTTGCATGCTGCGCATGATTTTTTTTTTTTTTTTAATC [CTAAT] | 0.458 ± 0.036 | 0.303 ± 0.015
46 | TTTTTGCATGCTGCGCATGCTTTTTTTTTTTTTTTTAATA [ATAAT] | 0.56 ± 0.0062 | 0.458 ± 0.047
47 | TTTTTGCATGCTGCTCAGCATTTTTTTTTTTTTTTTAAGT [TGAAT] | 0.663 ± 0.018 | 0.493 ± 0.031
48 | TTTTTGCATGCTGCTCATCATTTTTTTTTTTTTTTTAAGG [GGAAT] | 0.627 ± 0.024 | 0.518 ± 0.045
49 | TTTTTGCATGCTGCTCATGATTTTTTTTTTTTTTTTAAGC [CGAAT] | 0.524 ± 0.023 | 0.417 ± 0.029
50 | TTTTTGCATGCTGCTCATGCTTTTTTTTTTTTTTTTAAGA [AGAAT] | 0.649 ± 0.011 | 0.589 ± 0.024
51 | TTTTTGCATGCTGCTGAGCATTTTTTTTTTTTTTTTAACT [TCAAT] | 0.492 ± 0.02 | 0.353 ± 0.027
52 | TTTTTGCATGCTGCTGATCATTTTTTTTTTTTTTTTAACG [GCAAT] | 0.51 ± 0.034 | 0.426 ± 0.037
53 | TTTTTGCATGCTGCTGATGATTTTTTTTTTTTTTTTAACC [CCAAT] | 0.396 ± 0.025 | 0.278 ± 0.021
54 | TTTTTGCATGCTGCTGATGCTTTTTTTTTTTTTTTTAACA [ACAAT] | 0.557 ± 0.022 | 0.405 ± 0.033
55 | TTTTTGCATGCTGCTGCGCATTTTTTTTTTTTTTTTAAAT | 0.612 ± 0.027 | 0.454 ± 0.038
56 | TTTTTGCATGCTGCTGCTCATTTTTTTTTTTTTTTTAAAG [GAAAT] | 0.552 ± 0.036 | 0.397 ± 0.021
57 | TTTTTGCATGCTGCTGCTGATTTTTTTTTTTTTTTTAAAC [CAAAT] | 0.447 ± 0.028 | 0.336 ± 0.028
58 | TTTTTGCATGCTGCTGCTGCTTTTTTTTTTTTTTTTAAAA [AAAAT] | 0.631 ± 0.013 | 0.52 ± 0.028
59 | TTTTTTCAGCAGCAGCAGCATTTTTTTTTTTTTTTGTTTT | 0.531 ± 0.019 | 0.368 ± 0.021
60 | TTTTTTCAGCAGCAGCATCATTTTTTTTTTTTTTTGTTTG | 0.517 ± 0.028 | 0.33 ± 0.029
61 | TTTTTTCAGCAGCAGCATGATTTTTTTTTTTTTTTGTTTC [CTTTG] | 0.409 ± 0.024 | 0.306 ± 0.036
62 | TTTTTTCAGCAGCAGCATGCTTTTTTTTTTTTTTTGTTTA [ATTTG] | 0.521 ± 0.027 | 0.403 ± 0.022
63 | TTTTTTCAGCAGCATCAGCATTTTTTTTTTTTTTTGTTGT | 0.679 ± 0.031 | 0.494 ± 0.027
64 | TTTTTTCAGCAGCATCATCATTTTTTTTTTTTTTTGTTGG [GGTTG] | 0.582 ± 0.0069 | 0.471 ± 0.028
65 | TTTTTTCAGCAGCATCATGATTTTTTTTTTTTTTTGTTGC [CGTTG] | 0.53 ± 0.024 | 0.389 ± 0.025
66 | TTTTTTCAGCAGCATCATGCTTTTTTTTTTTTTTTGTTGA [AGTTG] | 0.632 ± 0.027 | 0.548 ± 0.046
